Key:
[1] = system: CCCCc1nc(Cl)c(CO)n1Cc1ccc(-c2ccccc2-c2nn[nH]n2)cc1; test: TP_TRANSPORTER: transepithelial transport (basal to apical) in Caco-2 cells; assay type: functional, cell-based
[2] = system: CCCCc1nc(Cl)c(CO)n1Cc1ccc(-c2ccccc2-c2nn[nH]n2)cc1; test: TP_TRANSPORTER: transepithelial transport (basal to apical) in MDR1-expressing MDCK cells; assay type: functional, cell-based

For “ATP-dependent translocase ABCB1 (Homo sapiens)”, the Km [1] was 232 µM and the Km [2] was 403 µM.
